Assay results published in US8053186 (OHIO STATE UNIVERSITY RESEARCH FOUNDATION, dated 2011).

B1: Drosha (endogenous, immunoprecipitated from SEMK2 or PER377 nuclear extracts) (enzyme, human, UniProt Q9NRR4 1-1374, looked up)
chain: MMQGNTCHRMSFHPGRGCPRGRGGHGARPSAPSFRPQNLRLLHPQQPPVQYQYEPPSAPSTTFSNSPAPNFLPPRPDFVPFPPPMPPSAQGPLPPCPIRPPFPNHQMRHPFPVPPCFPPMPPPMPCPNNPPVPGAPPGQGTFPFMMPPPSMPHPPPPPVMPQQVNYQYPPGYSHHNFPPPSFNSFQNNPSSFLPSANNSSSPHFRHLPPYPLPKAPSERRSPERLKHYDDHRHRDHSHGRGERHRSLDRRERGRSPDRRRQDSRYRSDYDRGRTPSRHRSYERSRERERERHRHRDNRRSPSLERSYKKEYKRSGRSYGLSVVPEPAGCTPELPGEIIKNTDSWAPPLEIVNHRSPSREKKRARWEEEKDRWSDNQSSGKDKNYTSIKEKEPEETMPDKNEEEEEELLKPVWIRCTHSENYYSSDPMDQVGDSTVVGTSRLRDLYDKFEEELGSRQEKAKAARPPWEPPKTKLDEDLESSSESECESDEDSTCSSSSDSEVFDVIAEIKRKKAHPDRLHDELWYNDPGQMNDGPLCKCSAKARRTGIRHSIYPGEEAIKPCRPMTNNAGRLFHYRITVSPPTNFLTDRPTVIEYDDHEYIFEGFSMFAHAPLTNIPLCKVIRFNIDYTIHFIEEMMPENFCVKGLELFSLFLFRDILELYDWNLKGPLFEDSPPCCPRFHFMPRFVRFLPDGGKEVLSMHQILLYLLRCSKALVPEEEIANMLQWEELEWQKYAEECKGMIVTNPGTKPSSVRIDQLDREQFNPDVITFPIIVHFGIRPAQLSYAGDPQYQKLWKSYVKLRHLLANSPKVKQTDKQKLAQREEALQKIRQKNTMRREVTVELSSQGFWKTGIRSDVCQHAMMLPVLTHHIRYHQCLMHLDKLIGYTFQDRCLLQLAMTHPSHHLNFGMNPDHARNSLSNCGIRQPKYGDRKVHHMHMRKKGINTLINIMSRLGQDDPTPSRINHNERLEFLGDAVVEFLTSVHLYYLFPSLEEGGLATYRTAIVQNQHLAMLAKKLELDRFMLYAHGPDLCRESDLRHAMANCFEALIGAVYLEGSLEEAKQLFGRLLFNDPDLREVWLNYPLHPLQLQEPNTDRQLIETSPVLQKLTEFEEAIGVIFTHVRLLARAFTLRTVGFNHLTLGHNQRMEFLGDSIMQLVATEYLFIHFPDHHEGHLTLLRSSLVNNRTQAKVAEELGMQEYAITNDKTKRPVALRTKTLADLLESFIAALYIDKDLEYVHTFMNVCFFPRLKEFILNQDWNDPKSQLQQCCLTLRTEGKEPDIPLYKTLQTVGPSHARTYTVAVYFKGERIGCGKGPSIQQAEMGAAMDALEKYNFPQMAHQKRFIERKYRQELKEMRWEREHQEREPDETEDIKK
notes: Endogenous protein in nuclear extracts, not a purified recombinant construct; also called nuclear RNase III enzyme; SEMK2 Drosha

Tests used:
[1] = target: T1, normal p300 All1 (endogenous) (human, UniProt Q03164 1-2718, limits assumed); experiment: co-immunoprecipitation with anti-Drosha Ab from nuclear extracts, Western blot
T1 construct: also called normal All1
Method: (§1) FIG. 2A) Western blot detection of immunoprecipitated proteins. […] For unambiguous identification of Drosha, recombinant Drosha exogenously expressed in K562 cells transfected with pCK-Drosha-Flag plasmid was purified by IP (Drosha:FLAG). 20 μg nuclear extracts of leukemic cells or around 2.5 μg of immuno-purified Drosha were used in the analysis. Note that endogenous Drosha was purified from nuclear extracts while Drosha:FLAG was from whole cell lyzate.
(§2) K562 cells were transfected with pCK-drosha-flag by using a Nucleofector apparatus according to the manufacturer's instructions (AMAXA). 2 ×10^8 transfected cells were lysed and subjected to IP with anti-Flag M2 mAb as described in ref. 11. Briefly, 25 mg whole cell lysate were incubated with 500 μg mAb after preclearing with protein G Sepharose (GE Healthcare) at 4° C., O/N. Immunocomplex was precipitated with protein G Sepharose, washed, and the Drosha:FLAG in the precipitate was eluted by adding 3×FLAG peptide at a concentration of 0.4 mg/ml in a buffer containing 30 mM Hepes, pH7.4/100 mM KCl/5% Glycerol/0.2 mM EDTA/7.5 mM MgCl_2/2 mM DTT. Elution was repeated three times, each for 30 min at RT, and eluates were combined. For immunoprecipitation of endogenous Drosha, 50 mg of nuclear extracts from SEMK2 or PER377 cells prepared by the method of Dignam et al. (19) were subjected to IP with 300 μg of anti-Drosha Ab. […]

[2] = target: B1; experiment: co-IP with anti-Drosha Ab, Western blot
Method: as §1, §2

T1 sequence (Q03164 1-2718 limits assumed): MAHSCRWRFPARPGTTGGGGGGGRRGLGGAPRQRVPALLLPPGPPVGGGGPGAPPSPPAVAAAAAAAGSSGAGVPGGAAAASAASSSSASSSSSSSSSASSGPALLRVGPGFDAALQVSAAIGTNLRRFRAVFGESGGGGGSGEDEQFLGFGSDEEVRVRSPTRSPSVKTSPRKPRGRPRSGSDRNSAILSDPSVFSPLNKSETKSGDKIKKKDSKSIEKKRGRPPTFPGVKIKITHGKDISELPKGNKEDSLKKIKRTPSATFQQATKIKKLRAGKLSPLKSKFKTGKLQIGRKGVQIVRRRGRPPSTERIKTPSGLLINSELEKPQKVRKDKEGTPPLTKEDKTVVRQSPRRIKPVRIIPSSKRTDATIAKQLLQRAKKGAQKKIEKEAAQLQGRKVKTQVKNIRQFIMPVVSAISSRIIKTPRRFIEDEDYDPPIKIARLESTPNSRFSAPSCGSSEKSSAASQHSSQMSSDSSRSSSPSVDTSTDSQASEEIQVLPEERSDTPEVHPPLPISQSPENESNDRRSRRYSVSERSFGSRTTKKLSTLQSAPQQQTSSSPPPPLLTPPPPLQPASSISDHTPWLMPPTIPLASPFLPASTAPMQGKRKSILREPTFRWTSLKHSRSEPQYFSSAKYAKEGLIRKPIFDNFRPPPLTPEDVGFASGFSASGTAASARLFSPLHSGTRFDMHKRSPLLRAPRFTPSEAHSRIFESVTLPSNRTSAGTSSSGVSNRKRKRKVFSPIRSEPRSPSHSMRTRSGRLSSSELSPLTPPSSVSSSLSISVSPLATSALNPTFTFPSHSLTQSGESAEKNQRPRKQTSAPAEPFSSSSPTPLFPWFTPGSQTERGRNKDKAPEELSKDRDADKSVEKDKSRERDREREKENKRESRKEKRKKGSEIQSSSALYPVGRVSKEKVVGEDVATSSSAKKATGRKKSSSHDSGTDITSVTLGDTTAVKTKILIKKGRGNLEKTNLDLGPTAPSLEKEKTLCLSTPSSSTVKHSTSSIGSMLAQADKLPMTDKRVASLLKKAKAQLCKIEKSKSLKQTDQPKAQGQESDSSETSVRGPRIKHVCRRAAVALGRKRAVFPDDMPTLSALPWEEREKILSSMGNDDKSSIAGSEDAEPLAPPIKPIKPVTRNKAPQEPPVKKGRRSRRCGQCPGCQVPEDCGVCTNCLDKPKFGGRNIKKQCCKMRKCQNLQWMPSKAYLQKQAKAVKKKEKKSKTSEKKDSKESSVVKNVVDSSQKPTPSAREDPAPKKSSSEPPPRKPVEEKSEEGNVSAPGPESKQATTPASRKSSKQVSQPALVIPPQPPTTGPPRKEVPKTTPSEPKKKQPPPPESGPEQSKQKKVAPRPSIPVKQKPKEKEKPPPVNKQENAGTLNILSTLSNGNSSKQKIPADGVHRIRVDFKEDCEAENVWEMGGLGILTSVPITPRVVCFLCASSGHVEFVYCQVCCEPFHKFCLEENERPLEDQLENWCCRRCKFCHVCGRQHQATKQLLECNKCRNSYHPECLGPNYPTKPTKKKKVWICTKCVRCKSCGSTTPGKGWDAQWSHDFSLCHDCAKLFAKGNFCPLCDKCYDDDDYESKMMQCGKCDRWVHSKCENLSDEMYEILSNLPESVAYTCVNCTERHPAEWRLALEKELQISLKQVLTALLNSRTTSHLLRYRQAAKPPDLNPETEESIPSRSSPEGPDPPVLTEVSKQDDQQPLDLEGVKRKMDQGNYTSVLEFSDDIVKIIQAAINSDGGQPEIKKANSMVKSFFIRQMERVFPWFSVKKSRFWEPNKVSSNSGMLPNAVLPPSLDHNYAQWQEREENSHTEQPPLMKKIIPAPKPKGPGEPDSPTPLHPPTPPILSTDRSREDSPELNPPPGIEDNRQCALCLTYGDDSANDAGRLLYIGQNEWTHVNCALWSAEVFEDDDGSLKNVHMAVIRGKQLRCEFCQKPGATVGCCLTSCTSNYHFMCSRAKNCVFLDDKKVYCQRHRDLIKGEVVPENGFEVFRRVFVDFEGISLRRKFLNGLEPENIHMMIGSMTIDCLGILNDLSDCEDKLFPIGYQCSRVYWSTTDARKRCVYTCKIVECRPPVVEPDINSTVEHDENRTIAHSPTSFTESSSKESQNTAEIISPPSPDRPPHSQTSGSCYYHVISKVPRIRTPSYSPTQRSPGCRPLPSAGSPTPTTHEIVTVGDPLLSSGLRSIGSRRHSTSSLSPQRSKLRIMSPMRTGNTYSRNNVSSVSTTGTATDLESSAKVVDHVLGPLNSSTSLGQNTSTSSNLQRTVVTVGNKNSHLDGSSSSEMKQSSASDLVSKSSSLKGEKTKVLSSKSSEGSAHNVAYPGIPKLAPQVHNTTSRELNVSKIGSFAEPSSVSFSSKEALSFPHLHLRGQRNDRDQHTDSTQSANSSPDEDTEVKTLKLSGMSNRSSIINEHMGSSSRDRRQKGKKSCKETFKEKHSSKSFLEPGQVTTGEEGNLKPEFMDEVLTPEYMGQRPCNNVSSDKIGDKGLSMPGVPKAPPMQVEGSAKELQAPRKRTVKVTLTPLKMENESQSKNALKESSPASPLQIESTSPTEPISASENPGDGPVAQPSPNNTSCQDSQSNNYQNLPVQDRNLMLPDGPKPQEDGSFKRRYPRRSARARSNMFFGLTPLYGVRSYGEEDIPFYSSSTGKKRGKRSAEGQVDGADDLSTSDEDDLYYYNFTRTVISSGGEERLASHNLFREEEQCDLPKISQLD

| binding result [1] | binding result [2] | Binder |
| --- | --- | --- |
| no binding | – | B1 |
| – | binds | DGCR8 (endogenous) (other, human, UniProt Q8WYQ5 1-773, looked up) METDESPSPLPCGPAGEAVMESRARPFQALPREQSPPPPLQTSSGAEVMDVGSGGDGQSELPAEDPFNFYGASLLSKGSFSKGRLLIDPNCSGHSPRTARHAPAVRKFSPDLKLLKDVKISVSFTESCRSKDRKVLYTGAERDVRAECGLLLSPVSGDVHACPFGGSVGDGVGIGGESADKKDEENELDQEKRVEYAVLDELEDFTDNLELDEEGAGGFTAKAIVQRDRVDEEALNFPYEDDFDNDVDALLEEGLCAPKKRRTEEKYGGDSDHPSDGETSVQPMMTKIKTVLKSRGRPPTEPLPDGWIMTFHNSGVPVYLHRESRVVTWSRPYFLGTGSIRKHDPPLSSIPCLHYKKMKDNEEREQSSDLTPSGDVSPVKPLSRSAELEFPLDEPDSMGADPGPPDEKDPLGAEAAPGALGQVKAKVEVCKDESVDLEEFRSYLEKRFDFEQVTVKKFRTWAERRQFNREMKRKQAESERPILPANQKLITLSVQDAPTKKEFVINPNGKSEVCILHEYMQRVLKVRPVYNFFECENPSEPFGASVTIDGVTYGSGTASSKKLAKNKAARATLEILIPDFVKQTSEEKPKDSEELEYFNHISIEDSRVYELTSKAGLLSPYQILHECLKRNHGMGDTSIKFEVVPGKNQKSEYVMACGKHTVRGWCKNKRVGKQLASQKILQLLHPHVKNWGSLLRMYGRESSKMVKQETSDKSVIELQQYAKKNKPNLHILSKLQEEMKRLAEEREETRKKPKMSIVASAQPGGEPLCTVDV |
